Results on one molecule are retold here after patent US11649285B2, “Identification of VSIG3/VISTA as a novel immune checkpoint and use thereof for immunotherapy” (BIO-TECHNE CORPORATION, dated 2023).

The target of the experiment is Recombinant human VISTA Fc Chimera (human (homo sapiens)). The experiment in a line: functional ELISA: rhVISTA coated at 2 µg/mL, biotin-labeled rhVSIG3, streptavidin-HRP. The protocol: Following blocking of the wells with 1% BSA, varying amounts of rhVSIG3 labeled with biotin was added. Biotin label associated with the plate due to the rhVSIG3—rhVISTA interaction was detected with streptavidin-HRP.
Sequence of Recombinant human VISTA Fc Chimera (human (homo sapiens)) (chain, as listed by the source mutant limits assumed): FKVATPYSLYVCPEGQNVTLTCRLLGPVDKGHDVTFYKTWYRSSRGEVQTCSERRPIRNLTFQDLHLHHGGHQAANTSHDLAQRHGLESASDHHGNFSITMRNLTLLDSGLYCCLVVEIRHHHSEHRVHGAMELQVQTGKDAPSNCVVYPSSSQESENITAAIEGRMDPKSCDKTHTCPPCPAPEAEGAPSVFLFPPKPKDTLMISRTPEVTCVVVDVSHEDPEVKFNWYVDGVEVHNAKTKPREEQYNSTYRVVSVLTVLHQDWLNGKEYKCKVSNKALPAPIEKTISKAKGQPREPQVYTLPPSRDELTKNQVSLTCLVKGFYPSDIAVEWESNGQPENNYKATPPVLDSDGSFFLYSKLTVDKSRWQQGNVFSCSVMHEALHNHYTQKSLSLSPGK

B1: Recombinant human VSIG3 Fc Chimera (Fc fusion)
chain: LEVSESPGSIQVARGQTAVLPCTFTTSAALINLNVIWMVTPLSNANQPEQVILYQGGQMFDGAPRFHGRVGFTGTMPATNVSIFINNTQLSDTGTYQCLVNNLPDIGGRNIGVTGLTVLVPPSAPHCQIQGSQDIGSDVILLCSSEEGIPRPTYLWEKLDNTLKLPPTATQDQVQGTVTIRNISALSSGLYQCVASNAIGTSTCLLDLQVISPQPRNIGLIAG
Regarding B1, the half-maximal effective concentration (EC50) was roughly 0.25 µg/mL.
